Laboratory results published in patent US20240166755A1 (UNIVERSITY OF SOUTHERN CALIFORNIA, published 2024).

B1: CD8SP-AB317-(vL-vH)-Myc-CD28z-T2A-PAC(031615-T04) (scFv)
chain: DIVLTQSPASLAVSLGQSVTISCRASESVEYYGTSLMQWYQQKPGQPPKLLIYGASNVESGVPARFSGSGSGTDFSLNIHPVEEDDIAMYFCQQSRKVPWTFGGGTKLEIKGGGGSGGGGSGGGGSEVKLVESGGGLVKPGGSRKLSCAASGFTFSSYTMSWVRQTPAKRLEWVATISSGSSTIYYADTVKGRFTISRDNAKNTLFLQMTSLRSEDTAMYYCARRWFLDCWGQGTTLTVSSTREQKLISEEDLKIEVMYPPPYLDNEKSNGTIIHVKGKHLCPSPLFPGPSKPFWVLVVVGGVLACYSLLVTVAFIIFWVRSKRSRLLHSDYMNMTPRRPGPTRKHYQPYAPPRDFAAYRSRVKFSRSADAPAYQQGQNQLYNELNLGRREEYDVLDKRRGRDPEMGGKPRRKNPQEGLYNELQKDKMAEAYSEIGMKGERRRGKGHDGLYQGLSTATKDTYDALHMQALPPRSSGSGEGRGSLLTCGDVEENPG
notes: CAR on cells; entry = whole encoded polyprotein incl; CD8 signal peptide and T2A-PAC
B2: CD8SP-KSHV-4C3-(vL-vH)-Myc-BBz-T2A-PAC(042315-N01) (scFv)
chain: DIVMTQSPSSLTMSVGQKVTMSCKSSHSLLNSRNQKNYLAWFQQKPGQSPKLLVYFASTRESGVPDRFIGSGSGTDFTLTISNVQAEDLADYFCQQHYTTLPTFGGGTKLEIKGGGGSGGGGSGGGGSQIQLVQSGPDLKKPGETVKISCKASGYTFTNTGMNWVKQAPGKGLKWMGWINTYTGEPTYADDFKGRFTFSLETSASTAYLQINNLKNEDTATYFCTRWGYGSSLYYAMDYWGQGTSVTVSSTREQKLISEEDLAKPTTTPAPRPPTPAPTIASQPLSLRPEACRPAAGGAVHTRGLDFACDIYIWAPLAGTCGVLLLSLVITLYCKRGRKKLLYIFKQPFMRPVQTTQEEDGCSCRFPEEEEGGCELRVKFSRSADAPAYQQGQNQLYNELNLGRREEYDVLDKRRGRDPEMGGKPRRKNPQEGLYNELQKDKMAEAYSEIGMKGERRRGKGHDGLYQGLSTATKDTYDALHMQALPPRSSGSGEGRGSLLTCGDVEENPG
notes: also called control CAR 4C3
B3: CD8SP-175-(vL-vH)-Myc-CD28z-T2A-PAC(031615-Q04) (scFv)
chain: DQIVLTQSPAIMSASPGEKVTISCSASSSVSYMYWYQQKPGSSPKPWIYRTSNLASGVPARFSGSGSGTSYSLTISNMEAEDAAAYYCQQYHSYPTTFGGGTKLEVKGGGGSGGGGSGGGGSEVQLVESGGGLVQPKGSLKLSCAASGFSFNTYAMNWVRQAPGKGLEWIAHIRSKSNNFATYYADSVKDRFSISRDASENILFLQMNNLKTEDTAMYYCVRQGGDFPMDYWGQGTSVTVSSTREQKLISEEDLKIEVMYPPPYLDNEKSNGTIIHVKGKHLCPSPLFPGPSKPFWVLVVVGGVLACYSLLVTVAFIIFWVRSKRSRLLHSDYMNMTPRRPGPTRKHYQPYAPPRDFAAYRSRVKFSRSADAPAYQQGQNQLYNELNLGRREEYDVLDKRRGRDPEMGGKPRRKNPQEGLYNELQKDKMAEAYSEIGMKGERRRGKGHDGLYQGLSTATKDTYDALHMQALPPRSSGSGEGRGSLLTCGDVEENPG
notes: as for B1
B4: CD8SP-12E10-(vL-vH)-Myc-CD28z-T2A-PAC(031615-S03) (scFv)
chain: DQVQLQQSGPGLVKPSETLSLTCTVSGDSISSYYWSWIRQPPGKGLEWIGYIYYSGSTNYNPSLKSRVTISVDTSKSQFSLKLSSVTAADTAVYYCARGRYFDVWGRGTMVTSSGGGGSGGGGSGGGGSSSYVLTQPPSVSGSPGQSITISCTGTSSDVGGYNYVSWYQQHPGKAPKLMIYEGSKRPSGVSNRFSGSKSGNTASLTISGLQAEDEADYYCSSYTTRSTRVFGGGTKLTVLGAAATREQKLISEEDLKIEVMYPPPYLDNEKSNGTIIHVKGKHLCPSPLFPGPSKPFWVLVVVGGVLACYSLLVTVAFIIFWVRSKRSRLLHSDYMNMTPRRPGPTRKHYQPYAPPRDFAAYRSRVKFSRSADAPAYQQGQNQLYNELNLGRREEYDVLDKRRGRDPEMGGKPRRKNPQEGLYNELQKDKMAEAYSEIGMKGERRRGKGHDGLYQGLSTATKDTYDALHMQALPPRSSGSGEGRGSLLTCGDVEENPG
notes: as for B1
B5: CD8SP-4C3-(vL-vH)-Myc-CD28z-T2A-Pac(031615-W05) (scFv)
chain: DIVMTQSPSSLTMSVGQKVTMSCKSSHSLLNSRNQKNYLAWFQQKPGQSPKLLVYFASTRESGVPDRFIGSGSGTDFTLTISNVQAEDLADYFCQQHYTTLPTFGGGTKLEIKGGGGSGGGGSGGGGSQIQLVQSGPDLKKPGETVKISCKASGYTFTNTGMNWVKQAPGKGLKWMGWINTYTGEPTYADDFKGRFTFSLETSASTAYLQINNLKNEDTATYFCTRWGYGSSLYYAMDYWGQGTSVTVSSTREQKLISEEDLKIEVMYPPPYLDNEKSNGTIIHVKGKHLCPSPLFPGPSKPFWVLVVVGGVLACYSLLVTVAFIIFWVRSKRSRLLHSDYMNMTPRRPGPTRKHYQPYAPPRDFAAYRSRVKFSRSADAPAYQQGQNQLYNELNLGRREEYDVLDKRRGRDPEMGGKPRRKNPQEGLYNELQKDKMAEAYSEIGMKGERRRGKGHDGLYQGLSTATKDTYDALHMQALPPRSSGSGEGRGSLLTCGDVEENPG
notes: also called control CAR 4C3
B6: CD8SP-161-(vL-vH)-Myc-CD28z-T2A-PAC(021715-Z07) (scFv)
chain: DDIQMTQSSSSFSVSLGDRVTITCMASEDIYIRLAWYQQKPGNAPRLLISAATSLETGVPSRFSGSGSGKDYTLSITSLQTEDVGTYYCQQYWSSPWTFGGGTKLEINGGGGSGGGGSGGGGSDVQLQESGPGLVKPSQSLSLTCTVTGYSITSDYTWNWIRQFPGNKLEWMGYITYSGSTSYNPSLKSRNSITRDTSKNQFFLQLNSVTTEDTATYYCARLGRRYTMDYWGQGTSVTVSSTREQKLISEEDLKIEVMYPPPYLDNEKSNGTIIHVKGKHLCPSPLFPGPSKPFWVLVVVGGVLACYSLLVTVAFIIFWVRSKRSRLLHSDYMNMTPRRPGPTRKHYQPYAPPRDFAAYRSRVKFSRSADAPAYQQGQNQLYNELNLGRREEYDVLDKRRGRDPEMGGKPRRKNPQEGLYNELQKDKMAEAYSEIGMKGERRRGKGHDGLYQGLSTATKDTYDALHMQALPPRSSGSGEGRGSLLTCGDVEENPG
notes: as for B1
B7: CD8SP-161-(vL-vH)-GGSG-NLuc-AcV5 (scFv)
scFv: DDIQMTQSSSSFSVSLGDRVTITCMASEDIYIRLAWYQQKPGNAPRLLISAATSLETGVPSRFSGSGSGKDYTLSITSLQTEDVGTYYCQQYWSSPWTFGGGTKLEINGGGGSGGGGSGGGGSDVQLQESGPGLVKPSQSLSLTCTVTGYSITSDYTWNWIRQFPGNKLEWMGYITYSGSTSYNPSLKSRNSITRDTSKNQFFLQLNSVTTEDTATYYCARLGRRYTMDYWGQGTSVTVSSTRGGSGVFTLEDFVGDWRQTAGYNLDQVLEQGGVSSLFQNLGVSVTPIQRIVLSGENGLKIDIHVIIPYEGLSGDQMGQIEKIFKVVYPVDDHHFKVILHYGTLVIDGVTPNMIDYFGRPYEGIAVFDGKKITVTGTLWNGNKIIDERLINPDGSLLFRVTINGVTGWRLCERILASWKDASGWS
notes: the entry includes the CD8 signal peptide

Key:
[1] = molecular target: T1, FLAG-CD19-ECD-GGSG-NLuc-AcV5 (human); assay: NLuc assay: CAR-T cells incubated with CD19-GGSG-NLuc-AcV5 supernatant
T1 construct: the entry includes the signal peptide; also called CD19-GGSG-NLuc-AcV5; CD19-GGSG-NLuc fusion protein
T1 chain: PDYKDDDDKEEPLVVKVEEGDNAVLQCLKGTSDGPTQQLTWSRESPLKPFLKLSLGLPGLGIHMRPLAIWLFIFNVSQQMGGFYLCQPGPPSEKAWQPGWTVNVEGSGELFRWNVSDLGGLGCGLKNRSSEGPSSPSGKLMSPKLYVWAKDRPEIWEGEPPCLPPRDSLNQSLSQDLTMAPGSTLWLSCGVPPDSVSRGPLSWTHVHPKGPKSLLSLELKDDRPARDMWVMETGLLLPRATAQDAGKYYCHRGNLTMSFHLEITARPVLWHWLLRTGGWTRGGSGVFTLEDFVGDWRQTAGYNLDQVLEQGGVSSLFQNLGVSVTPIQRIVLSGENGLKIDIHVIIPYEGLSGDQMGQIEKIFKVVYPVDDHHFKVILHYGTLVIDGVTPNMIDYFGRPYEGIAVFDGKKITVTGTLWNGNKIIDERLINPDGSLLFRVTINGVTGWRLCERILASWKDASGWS

[2] = molecular target: T1, FLAG-CD19-ECD-GGSG-NLuc-AcV5; assay: NLuc assay: CAR on Jurkat-NFAT-Luc cells incubated with FLAG-CD19-ECD-GGSG-NLuc-AcV5 supernatant
[3] = molecular target: T2, MPL-ECD-GGSG-Nluc-AcV5 (human); assay: NLuc assay: CAR-T cells incubated with MPL-GGSG-NLuc-AcV5 supernatant
T2 construct: the entry includes the native signal peptide; also called MPL-GGSG-NLuc-AcV5; MPL-GGSG-NLuc AcV5
T2 chain: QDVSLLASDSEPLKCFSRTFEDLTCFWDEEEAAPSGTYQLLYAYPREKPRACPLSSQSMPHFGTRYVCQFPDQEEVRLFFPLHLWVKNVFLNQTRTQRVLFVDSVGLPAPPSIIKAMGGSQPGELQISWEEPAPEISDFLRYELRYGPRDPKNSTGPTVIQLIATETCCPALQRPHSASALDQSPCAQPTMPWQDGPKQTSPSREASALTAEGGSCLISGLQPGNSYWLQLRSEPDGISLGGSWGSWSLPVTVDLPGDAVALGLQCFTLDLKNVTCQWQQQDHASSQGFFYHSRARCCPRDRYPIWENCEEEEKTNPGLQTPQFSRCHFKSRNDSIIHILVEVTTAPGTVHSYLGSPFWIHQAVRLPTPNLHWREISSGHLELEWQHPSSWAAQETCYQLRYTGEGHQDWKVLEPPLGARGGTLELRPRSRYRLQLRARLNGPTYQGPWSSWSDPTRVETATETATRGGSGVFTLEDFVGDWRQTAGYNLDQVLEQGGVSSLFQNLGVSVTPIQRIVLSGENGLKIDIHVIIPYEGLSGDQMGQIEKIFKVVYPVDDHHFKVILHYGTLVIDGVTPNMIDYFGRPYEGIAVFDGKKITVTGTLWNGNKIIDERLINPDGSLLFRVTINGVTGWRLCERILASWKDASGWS

[4] = molecular target: T3, human MPL (thrombopoietin receptor) (human, UniProt P40238 26-635); assay: NLuc luminescence of scFv-NLuc fusion supernatant bound to washed cells
T3 construct: whole, on cells; also called c-MPL; c-Mpl
T3 sequence (looked up): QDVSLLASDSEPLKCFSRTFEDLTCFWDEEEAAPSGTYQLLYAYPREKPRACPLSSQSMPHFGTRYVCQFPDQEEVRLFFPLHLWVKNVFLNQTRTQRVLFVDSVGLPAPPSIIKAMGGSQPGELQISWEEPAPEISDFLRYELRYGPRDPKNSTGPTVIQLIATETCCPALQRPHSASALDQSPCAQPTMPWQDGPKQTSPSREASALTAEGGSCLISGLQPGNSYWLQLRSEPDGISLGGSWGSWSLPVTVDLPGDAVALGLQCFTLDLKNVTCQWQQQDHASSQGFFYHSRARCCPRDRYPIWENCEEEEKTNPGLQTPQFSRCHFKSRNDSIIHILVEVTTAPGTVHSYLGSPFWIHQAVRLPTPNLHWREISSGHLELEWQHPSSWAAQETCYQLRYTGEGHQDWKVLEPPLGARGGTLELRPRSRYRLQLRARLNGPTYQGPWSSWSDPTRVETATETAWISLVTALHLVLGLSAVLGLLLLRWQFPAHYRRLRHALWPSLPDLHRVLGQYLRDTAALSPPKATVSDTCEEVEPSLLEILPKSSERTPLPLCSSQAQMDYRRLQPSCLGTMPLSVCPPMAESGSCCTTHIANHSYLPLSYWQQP

Binder | binding result [1] | other results
B1 | no binding | –
B2 | – | binding result [2]: no binding
B3 | no binding | –
B4 | no binding | –
B5 | – | binding result [3]: no binding
B6 | no binding | –
B7 | – | binding result [4]: binds
